Legend:
RNF213-TurboID = target: T1, RNF213-TurboID (Homo sapiens (Human), UniProt Q63HN8 1-5207); assay: TurboID proximity biotinylation, streptavidin recovery, MS, SAINT express (FIG. 2B)
T1 construct: Recombined into HeLa FlpIn-TRex RNF213-KO cells; proximity-labelling bait; also called C-Turbo; 3×-FLAG-RNF213-TurboID; not shown: 3×-FLAG tag; TurboID biotin ligase at the C-terminus
Description: RNF213-interacting proteins were identified to evaluate how RNF213 regulates hypoxia sensitivity (FIG. 2A). TurboID-RNF213 (“N-Turbo”), RNF213-TurboID (“C-Turbo”), or TurboID alone (Control Turbo) were recombined into HeLa FlpIn-TRex RNF213-KO cells. These cells were labelled with biotin for 10 min., and biotinylated proteins were recovered on streptavidin, digested with trypsin, and analyzed by MS (FIG. 2A). Proteins were ranked as potential binding partners by using the SAINT express algorithm³⁶ Immunoblotting (FIG. 9A) and silver staining (FIG. 9B) confirmed that similar amounts of each sample were submitted for analysis. Relatively few proteins labelled by N-Turbo were labelled to an extent greater than their labeling by Control-Turbo (FIG. 9C). […] Among the other top candidates were the major K63-deubiquitinase and NF-κB regulator CYLD and its interacting protein SPATA2 (FIG. 2B, orange-colored arrows). […] Other top C-Turbo interactors included proteins involved in VEGF signaling, which is induced in hypoxia (FLII, MYOF^{39,40}), inflammation and atherosclerosis (MAP4K4, SPTLC1^{41,42}), lipotoxicity (SPTLC1, ALDH1B1^{43,44}), ischemia response (CPEB4⁴⁵), and stroke (SARS2⁴⁶). Top N-Turbo interactors included CYP51A1, which plays a crucial role in cholesterol metabolism and atherosclerosis⁴⁷.
Cells were cultured in standard media but with 10% tetracycline (Tet)-free FBS (Clonetech) for at least 1 week. Tet-free/biotin-free FBS was generated by incubating Tet-free FBS with sterile streptavidin beads overnight followed by centrifugation to remove the beads. N-Turbo, C-Turbo, and Turbo proteins were induced by adding 1 μg/ml Dox to cells for 36 hours. For the last ten min. of incubation, 500 μM of biotin was added to the medium.

3×-FLAG-RNF213 = target: T2, 3×-FLAG-RNF213 (Homo sapiens (Human), UniProt Q63HN8 1-5207, phosphotyrosine at Y1275 (found by MS in cells; phosphorylated by ABL1 in vitro)); assay: co-immunoprecipitation/immunoblot (FIG. 2D)
T2 construct: Expressed from pcDNA5-3x-FLAG-RNF213; also called WT-RNF213; wild type RNF213; not shown: 3×-FLAG tag

TurboID-RNF213 = target: T3, TurboID-RNF213 (Homo sapiens (Human), UniProt Q63HN8 1-5207); assay: TurboID proximity biotinylation, streptavidin recovery, MS, SAINT express (FIG. 9C)
T3 construct: Recombined into HeLa FlpIn-TRex RNF213-KO cells; proximity-labelling bait; also called N-Turbo; not shown: TurboID biotin ligase at the N-terminus
Description: RNF213-interacting proteins were identified to evaluate how RNF213 regulates hypoxia sensitivity (FIG. 2A). TurboID-RNF213 (“N-Turbo”), RNF213-TurboID (“C-Turbo”), or TurboID alone (Control Turbo) were recombined into HeLa FlpIn-TRex RNF213-KO cells. These cells were labelled with biotin for 10 min., and biotinylated proteins were recovered on streptavidin, digested with trypsin, and analyzed by MS (FIG. 2A). Proteins were ranked as potential binding partners by using the SAINT express algorithm³⁶ Immunoblotting (FIG. 9A) and silver staining (FIG. 9B) confirmed that similar amounts of each sample were submitted for analysis. Relatively few proteins labelled by N-Turbo were labelled to an extent greater than their labeling by Control-Turbo (FIG. 9C). […] Among the other top candidates were the major K63-deubiquitinase and NF-κB regulator CYLD and its interacting protein SPATA2 (FIG. 2B, orange-colored arrows). […] Other top C-Turbo interactors included proteins involved in VEGF signaling, which is induced in hypoxia (FLII, MYOF^{39,40}), inflammation and atherosclerosis (MAP4K4, SPTLC1^{41,42}), lipotoxicity (SPTLC1, ALDH1B1^{43,44}), ischemia response (CPEB4⁴⁵), and stroke (SARS2⁴⁶). Top N-Turbo interactors included CYP51A1, which plays a crucial role in cholesterol metabolism and atherosclerosis⁴⁷. […]

T1 sequence (Q63HN8 whole entry N1045D): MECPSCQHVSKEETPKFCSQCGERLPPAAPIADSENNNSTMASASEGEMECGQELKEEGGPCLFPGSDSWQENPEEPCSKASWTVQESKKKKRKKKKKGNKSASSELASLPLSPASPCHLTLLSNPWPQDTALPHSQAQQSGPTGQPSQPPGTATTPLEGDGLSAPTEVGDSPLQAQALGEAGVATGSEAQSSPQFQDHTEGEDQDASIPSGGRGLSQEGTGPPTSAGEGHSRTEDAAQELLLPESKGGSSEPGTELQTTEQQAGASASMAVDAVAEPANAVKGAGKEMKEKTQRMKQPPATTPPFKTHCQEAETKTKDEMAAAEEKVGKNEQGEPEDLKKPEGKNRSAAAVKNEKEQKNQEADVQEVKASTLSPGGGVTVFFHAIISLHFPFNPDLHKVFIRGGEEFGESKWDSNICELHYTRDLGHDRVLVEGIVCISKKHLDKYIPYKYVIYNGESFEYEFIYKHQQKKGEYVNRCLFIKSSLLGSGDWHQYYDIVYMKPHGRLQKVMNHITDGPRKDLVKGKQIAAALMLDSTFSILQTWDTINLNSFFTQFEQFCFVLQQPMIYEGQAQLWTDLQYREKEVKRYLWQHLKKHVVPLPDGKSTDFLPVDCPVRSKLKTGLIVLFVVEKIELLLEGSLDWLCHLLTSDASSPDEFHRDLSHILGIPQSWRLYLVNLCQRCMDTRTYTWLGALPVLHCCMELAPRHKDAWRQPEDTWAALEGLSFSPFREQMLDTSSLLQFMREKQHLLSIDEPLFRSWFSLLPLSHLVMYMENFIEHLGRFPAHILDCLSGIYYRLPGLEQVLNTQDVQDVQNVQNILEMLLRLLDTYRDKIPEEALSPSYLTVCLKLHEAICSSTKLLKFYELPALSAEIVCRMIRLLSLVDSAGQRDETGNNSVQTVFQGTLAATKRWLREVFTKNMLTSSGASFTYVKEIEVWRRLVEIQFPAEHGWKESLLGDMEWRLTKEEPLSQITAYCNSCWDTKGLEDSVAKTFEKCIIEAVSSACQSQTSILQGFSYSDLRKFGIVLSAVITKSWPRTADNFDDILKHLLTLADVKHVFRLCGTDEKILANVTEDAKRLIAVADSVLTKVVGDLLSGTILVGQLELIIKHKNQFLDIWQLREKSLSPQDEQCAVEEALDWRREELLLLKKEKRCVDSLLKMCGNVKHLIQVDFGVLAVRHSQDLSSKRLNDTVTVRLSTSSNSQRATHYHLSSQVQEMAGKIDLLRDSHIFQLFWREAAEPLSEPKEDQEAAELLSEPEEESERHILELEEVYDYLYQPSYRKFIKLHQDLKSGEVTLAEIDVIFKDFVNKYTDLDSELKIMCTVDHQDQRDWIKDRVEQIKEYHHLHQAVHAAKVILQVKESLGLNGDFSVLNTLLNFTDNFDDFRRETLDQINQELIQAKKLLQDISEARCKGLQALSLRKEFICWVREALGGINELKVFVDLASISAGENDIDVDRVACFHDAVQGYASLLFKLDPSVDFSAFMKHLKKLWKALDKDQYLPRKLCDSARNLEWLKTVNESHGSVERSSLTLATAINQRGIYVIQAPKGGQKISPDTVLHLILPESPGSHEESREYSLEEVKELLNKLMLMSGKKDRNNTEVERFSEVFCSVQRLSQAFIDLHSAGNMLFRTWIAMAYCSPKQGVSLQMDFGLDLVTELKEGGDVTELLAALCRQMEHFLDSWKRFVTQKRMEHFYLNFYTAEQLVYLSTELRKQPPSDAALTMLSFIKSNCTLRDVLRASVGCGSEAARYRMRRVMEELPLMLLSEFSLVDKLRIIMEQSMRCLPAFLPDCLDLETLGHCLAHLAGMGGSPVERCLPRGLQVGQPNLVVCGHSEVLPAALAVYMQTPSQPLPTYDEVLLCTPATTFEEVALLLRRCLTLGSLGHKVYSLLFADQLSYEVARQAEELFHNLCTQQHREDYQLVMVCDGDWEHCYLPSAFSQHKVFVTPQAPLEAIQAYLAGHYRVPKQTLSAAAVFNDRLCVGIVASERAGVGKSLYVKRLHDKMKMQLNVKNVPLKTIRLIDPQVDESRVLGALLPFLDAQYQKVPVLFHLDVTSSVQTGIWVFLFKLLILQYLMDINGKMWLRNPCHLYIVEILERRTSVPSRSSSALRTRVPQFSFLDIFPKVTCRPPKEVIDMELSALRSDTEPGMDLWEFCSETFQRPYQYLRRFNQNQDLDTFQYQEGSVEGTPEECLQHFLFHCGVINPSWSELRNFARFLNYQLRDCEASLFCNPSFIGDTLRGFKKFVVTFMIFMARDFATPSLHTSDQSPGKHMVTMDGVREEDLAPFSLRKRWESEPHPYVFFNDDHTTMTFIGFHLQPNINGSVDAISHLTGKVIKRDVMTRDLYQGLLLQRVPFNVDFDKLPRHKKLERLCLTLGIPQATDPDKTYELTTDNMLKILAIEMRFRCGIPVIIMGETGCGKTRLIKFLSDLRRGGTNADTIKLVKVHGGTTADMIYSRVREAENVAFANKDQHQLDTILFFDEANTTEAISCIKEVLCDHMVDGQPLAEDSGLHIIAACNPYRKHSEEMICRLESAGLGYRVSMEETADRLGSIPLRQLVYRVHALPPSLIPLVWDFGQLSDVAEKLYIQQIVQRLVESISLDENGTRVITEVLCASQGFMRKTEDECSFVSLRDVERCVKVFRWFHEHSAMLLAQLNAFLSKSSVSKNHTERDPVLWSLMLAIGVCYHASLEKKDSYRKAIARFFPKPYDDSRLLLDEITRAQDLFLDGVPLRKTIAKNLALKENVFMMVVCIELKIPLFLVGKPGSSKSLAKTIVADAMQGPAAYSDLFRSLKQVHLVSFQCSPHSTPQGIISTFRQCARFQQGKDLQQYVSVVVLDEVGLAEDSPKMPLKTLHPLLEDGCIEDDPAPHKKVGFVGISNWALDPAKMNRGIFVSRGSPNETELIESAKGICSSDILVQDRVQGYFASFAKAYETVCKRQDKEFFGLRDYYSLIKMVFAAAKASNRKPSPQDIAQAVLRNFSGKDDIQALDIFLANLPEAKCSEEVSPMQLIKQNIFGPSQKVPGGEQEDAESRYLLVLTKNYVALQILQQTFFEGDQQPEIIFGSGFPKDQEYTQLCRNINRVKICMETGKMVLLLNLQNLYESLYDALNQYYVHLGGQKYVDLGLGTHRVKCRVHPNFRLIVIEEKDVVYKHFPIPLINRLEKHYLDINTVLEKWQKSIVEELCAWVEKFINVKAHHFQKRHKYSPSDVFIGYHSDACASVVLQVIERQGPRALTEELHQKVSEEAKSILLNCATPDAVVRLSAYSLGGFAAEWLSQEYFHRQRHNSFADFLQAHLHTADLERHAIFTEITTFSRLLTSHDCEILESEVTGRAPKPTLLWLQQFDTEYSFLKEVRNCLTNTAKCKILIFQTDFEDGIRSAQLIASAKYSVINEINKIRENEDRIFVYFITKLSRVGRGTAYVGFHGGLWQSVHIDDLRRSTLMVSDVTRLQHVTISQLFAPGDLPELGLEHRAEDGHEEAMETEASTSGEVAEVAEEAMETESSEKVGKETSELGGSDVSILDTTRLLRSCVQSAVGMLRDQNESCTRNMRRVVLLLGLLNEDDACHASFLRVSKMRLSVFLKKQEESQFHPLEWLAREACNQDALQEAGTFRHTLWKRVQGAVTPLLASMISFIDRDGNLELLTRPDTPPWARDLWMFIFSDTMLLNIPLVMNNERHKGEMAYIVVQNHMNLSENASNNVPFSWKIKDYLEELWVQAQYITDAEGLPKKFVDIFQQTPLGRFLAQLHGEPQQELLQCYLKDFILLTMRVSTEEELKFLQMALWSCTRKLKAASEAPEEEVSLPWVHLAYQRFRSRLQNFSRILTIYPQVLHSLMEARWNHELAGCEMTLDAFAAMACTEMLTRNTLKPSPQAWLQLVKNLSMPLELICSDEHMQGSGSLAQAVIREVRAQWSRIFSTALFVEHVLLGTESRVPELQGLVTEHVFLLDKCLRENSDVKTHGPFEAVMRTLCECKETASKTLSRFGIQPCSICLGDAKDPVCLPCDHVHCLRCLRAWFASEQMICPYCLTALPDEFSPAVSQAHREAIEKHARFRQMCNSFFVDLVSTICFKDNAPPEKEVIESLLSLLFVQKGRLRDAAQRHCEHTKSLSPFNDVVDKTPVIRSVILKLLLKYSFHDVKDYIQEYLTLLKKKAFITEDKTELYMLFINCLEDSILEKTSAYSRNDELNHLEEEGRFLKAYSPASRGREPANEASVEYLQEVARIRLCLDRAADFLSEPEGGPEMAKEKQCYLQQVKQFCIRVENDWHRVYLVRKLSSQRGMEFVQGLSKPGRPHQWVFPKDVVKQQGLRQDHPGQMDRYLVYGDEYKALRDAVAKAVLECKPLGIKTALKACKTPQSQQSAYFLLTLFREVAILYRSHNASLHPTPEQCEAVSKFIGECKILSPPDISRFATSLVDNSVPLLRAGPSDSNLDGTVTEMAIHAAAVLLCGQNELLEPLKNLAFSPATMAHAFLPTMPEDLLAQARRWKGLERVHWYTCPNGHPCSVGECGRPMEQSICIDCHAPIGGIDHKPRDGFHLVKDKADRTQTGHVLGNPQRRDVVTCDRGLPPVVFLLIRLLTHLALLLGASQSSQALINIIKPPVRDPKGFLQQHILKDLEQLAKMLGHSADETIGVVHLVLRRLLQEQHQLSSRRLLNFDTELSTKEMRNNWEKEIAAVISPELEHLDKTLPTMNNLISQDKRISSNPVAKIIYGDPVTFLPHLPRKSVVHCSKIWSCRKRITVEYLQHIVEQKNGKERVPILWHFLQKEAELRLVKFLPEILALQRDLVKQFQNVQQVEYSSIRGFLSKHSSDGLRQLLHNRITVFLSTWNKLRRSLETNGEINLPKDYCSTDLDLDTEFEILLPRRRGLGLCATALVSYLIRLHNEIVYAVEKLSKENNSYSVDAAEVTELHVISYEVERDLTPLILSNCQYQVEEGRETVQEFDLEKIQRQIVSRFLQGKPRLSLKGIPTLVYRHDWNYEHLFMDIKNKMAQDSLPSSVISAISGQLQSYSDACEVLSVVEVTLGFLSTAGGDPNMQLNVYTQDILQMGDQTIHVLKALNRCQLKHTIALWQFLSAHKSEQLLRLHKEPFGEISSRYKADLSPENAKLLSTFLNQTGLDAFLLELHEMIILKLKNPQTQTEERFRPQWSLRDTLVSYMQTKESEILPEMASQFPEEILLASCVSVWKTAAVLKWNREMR

Binder | binding result (RNF213-TurboID) | binding result (3×-FLAG-RNF213) | binding result (TurboID-RNF213)
PTP1B (PTPN1) (enzyme, Homo sapiens, UniProt P18031 1-435, looked up, Endogenous protein in cell lysates; also called Tyrosine-protein phosphatase non-receptor type 1) MEMEKEFEQIDKSGSWAAIYQDIRHEASDFPCRVAKLPKNKNRNRYRDVSPFDHSRIKLHQEDNDYINASLIKMEEAQRSYILTQGPLPNTCGHFWEMVWEQKSRGVVMLNRVMEKGSLKCAQYWPQKEEKEMIFEDTNLKLTLISEDIKSYYTVRQLELENLTTQETREILHFHYTTWPDFGVPESPASFLNFLFKVRESGSLSPEHGPVVVHCSAGIGRSGTFCLADTCLLLMDKRKDPSSVDIKKVLLEMRKFRMGLIQTADQLRFSYLAVIEGAKFIMGDSSVQDQWKELSHEDLEPPPEHIPPPPRPPKRILEPHNGKCREFFPNHQWVKEETQEDKDCPIKEEKGSPLNAAPYGIESMSQDTEVRSRVVGGSLRGAQAASPAKGEPSLPEKDEDHALSYWKPFLVNMCVATVLTAGAYLCYRFLFNSNT | binds |  | 
USP15 (enzyme, human, UniProt Q9Y4E8 2-981, looked up, Endogenous protein) AEGGAADLDTQRSDIATLLKTSLRKGDTWYLVDSRWFKQWKKYVGFDSWDKYQMGDQNVYPGPIDNSGLLKDGDAQSLKEHLIDELDYILLPTEGWNKLVSWYTLMEGQEPIARKVVEQGMFVKHCKVEVYLTELKLCENGNMNNVVTRRFSKADTIDTIEKEIRKIFSIPDEKETRLWNKYMSNTFEPLNKPDSTIQDAGLYQGQVLVIEQKNEDGTWPRGPSTPKSPGASNFSTLPKISPSSLSNNYNNMNNRNVKNSNYCLPSYTAYKNYDYSEPGRNNEQPGLCGLSNLGNTCFMNSAIQCLSNTPPLTEYFLNDKYQEELNFDNPLGMRGEIAKSYAELIKQMWSGKFSYVTPRAFKTQVGRFAPQFSGYQQQDCQELLAFLLDGLHEDLNRIRKKPYIQLKDADGRPDKVVAEEAWENHLKRNDSIIVDIFHGLFKSTLVCPECAKISVTFDPFCYLTLPLPMKKERTLEVYLVRMDPLTKPMQYKVVVPKIGNILDLCTALSALSGIPADKMIVTDIYNHRFHRIFAMDENLSSIMERDDIYVFEININRTEDTEHVIIPVCLREKFRHSSYTHHTGSSLFGQPFLMAVPRNNTEDKLYNLLLLRMCRYVKISTETEETEGSLHCCKDQNINGNGPNGIHEEGSPSEMETDEPDDESSQDQELPSENENSQSEDSVGGDNDSENGLCTEDTCKGQLTGHKKRLFTFQFNNLGNTDINYIKDDTRHIRFDDRQLRLDERSFLALDWDPDLKKRYFDENAAEDFEKHESVEYKPPKKPFVKLKDCIELFTTKEKLGAEDPWYCPNCKEHQQATKKLDLWSLPPVLVVHLKRFSYSRYMRDKLDTLVDFPINDLDMSEFLINPNAGPCRYNLIAVSNHYGGMGGGHYTAFAKNKDDGKWYYFDDSSVSTASEDQIVSKAAYVLFYQRQDTFSGTGFFPLDRETKGASAATGIPLESDEDSNDNDNDIENENCMHTN | binds |  | 
CYLD (enzyme, Homo sapiens, UniProt Q9NQC7-2 1-953, looked up, Endogenous protein in cell lysates; the isoform is the one matched by MS; also called Ubiquitin carboxyl-terminal hydrolase CYLD) MSSGLWSQEKVTSPYWEERIFYLLLQECSVTDKQTQKLLKVPKGSIGQYIQDRSVGHSRIPSAKGKKNQIGLKILEQPHAVLFVDEKDVVEINEKFTELLLAITNCEERFSLFKNRNRLSKGLQIDVGCPVKVQLRSGEEKFPGVVRFRGPLLAERTVSGIFFGVELLEEGRGQGFTDGVYQGKQLFQCDEDCGVFVALDKLELIEDDDTALESDYAGPGDTMQVELPPLEINSRVSLKVGETIESGTVIFCDVLPGKESLGYFVGVDMDNPIGNWDGRFDGVQLCSFACVESTILLHINDIIPESVTQERRPPKLAFMSRGVGDKGSSSHNKPKATGSTSDPGNRNRSELFYTLNGSSVDSQPQSKSKNTWYIDEVAEDPAKSLTEISTDFDRSSPPLQPPPVNSLTTENRFHSLPFSLTKMPNTNGSIGHSPLSLSAQSVMEELNTAPVQESPPLAMPPGNSHGLEVGSLAEVKENPPFYGVIRWIGQPPGLNEVLAGLELEDECAGCTDGTFRGTRYFTCALKKALFVKLKSCRPDSRFASLQPVSNQIERCNSLAFGGYLSEVVEENTPPKMEKEGLEIMIGKKKGIQGHYNSCYLDSTLFCLFAFSSVLDTVLLRPKEKNDVEYYSETQELLRTEIVNPLRIYGYVCATKIMKLRKILEKVEAASGFTSEEKDPEEFLNILFHHILRVEPLLKIRSAGQKVQDCYFYQIFMEKNEKVGVPTIQQLLEWSFINSNLKFAEAPSCLIIQMPRFGKDFKLFKKIFPSLELNITDLLEDTPRQCRICGGLAMYECRECYDDPDISAGKIKQFCKTCNTQVHLHPKRLNHKYNPVSLPKDLPDWDWRHGCIPCQNMELFAVLCIETSHYVAFVKYGKDDSAWLFFDSMADRDGGQNGFNIPQVTPCPEVGEYLKMSLEDLHSLDSRRIQGCARRLLCDAYMCMYQSPTMSLYK | binds | binds | 
SPATA2 (other, human, UniProt Q9UM82 1-520, looked up, Endogenous protein in cell lysates) MGKPSSMDTKFKDDLFRKYVQFHESKVDTTTSRQRPGSDECLRVAASTLLSLHKVDPFYRFRLIQFYEVVESSLRSLSSSSLRALHGAFSMLETVGINLFLYPWKKEFRSIKTYTGPFVYYVKSTLLEEDIRAILSCMGYTPELGTAYKLRELVETLQVKMVSFELFLAKVECEQMLEIHSQVKDKGYSELDIVSERKSSAEDVRGCSDALRRRAEGREHLTASMSRVALQKSASERAAKDYYKPRVTKPSRSVDAYDSYWESRKPPLKASLSLRKEPVATDVGDDLKDEIIRPSPSLLTMASSPHGSPDVLPPASPSNGPALLRGTYFSTQDDVDLYTDSEPRATYRRQDALRPDVWLLRNDAHSLYHKRSPPAKESALSKCQSCGLSCSSSLCQRCDSLLTCPPASKPSAFPSKASTHDSLAHGASLREKYPGQTQGLDRLPHLHSKSKPSTTPTSRCGFCNRPGATNTCTQCSKVSCDACLSAYHYDPCYKKSELHKFMPNNQLNYKSTQLSHLVYR | binds | binds | 
CYP51A1 (enzyme, Homo sapiens, UniProt Q16850-2 1-404, looked up, Endogenous protein found by proximity labelling/MS; also called Lanosterol 14-alpha demethylase) MVGKTFTYLLGSDAAALLFNSKNEDLNAEDVYSRLTTPVFGKGVAYDVPNPVFLEQKKMLKSGLNIAHFKQHVSIIEKETKEYFESWGESGEKNVFEALSELIILTASHCLHGKEIRSQLNEKVAQLYADLDGGFSHAAWLLPGWLPLPSFRRRDRAHREIKDIFYKAIQKRRQSQEKIDDILQTLLDATYKDGRPLTDDEVAGMLIGLLLAGQHTSSTTSAWMGFFLARDKTLQKKCYLEQKTVCGENLPPLTYDQLKDLNLLDRCIKETLRLRPPIMIMMRMARTPQTVAGYTIPPGHQVCVSPTVNQRLKDSWVERLDFNPDRYLQDNPASGEKFAYVPFGAGRHRCIGENFAYVQIKTIWSTMLRLYEFDLIDGYFPTVNYTTMIHTPENPVIRYKRRSK |  |  | binds
